Article PMC9482650, “Quantitative fragmentomics allow affinity mapping of interactomes” (Nature Communications, 2022)

T1: SYNJ2BP, P57105
T1 sequence (P57105 8-110, limits assumed, looked up): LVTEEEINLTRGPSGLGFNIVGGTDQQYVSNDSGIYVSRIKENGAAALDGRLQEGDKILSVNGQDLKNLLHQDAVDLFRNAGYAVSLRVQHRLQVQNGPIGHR

T2: APBA2_1, Q99767
T2 sequence (Q99767 563-664, limits assumed, looked up): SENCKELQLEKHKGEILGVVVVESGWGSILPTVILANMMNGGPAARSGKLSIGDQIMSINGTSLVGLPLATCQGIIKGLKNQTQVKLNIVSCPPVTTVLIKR

T3: PDZD7_3, Q9H5P4
T3 sequence (Q9H5P4 857-944, limits assumed, looked up): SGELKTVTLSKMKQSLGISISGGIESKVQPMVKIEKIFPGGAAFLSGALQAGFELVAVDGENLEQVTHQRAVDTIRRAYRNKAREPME

T4: ARHGAP21, Q5T5U3
T4 sequence (Q5T5U3 45-169, limits assumed, looked up): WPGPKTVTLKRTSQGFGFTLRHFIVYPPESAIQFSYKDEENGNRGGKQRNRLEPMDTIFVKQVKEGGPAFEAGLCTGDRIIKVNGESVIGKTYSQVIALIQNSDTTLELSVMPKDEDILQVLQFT

T5: DVL3, Q92997
T5 sequence (Q92997 244-331, limits assumed, looked up): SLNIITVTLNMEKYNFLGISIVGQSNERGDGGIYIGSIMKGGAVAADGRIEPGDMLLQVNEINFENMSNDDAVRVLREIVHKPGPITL

T6: GRIP1_5, Q9Y3R0
T6 sequence (Q9Y3R0 568-668, limits assumed, looked up): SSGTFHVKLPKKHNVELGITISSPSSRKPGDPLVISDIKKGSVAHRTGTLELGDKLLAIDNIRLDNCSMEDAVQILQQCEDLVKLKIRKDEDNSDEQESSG

T7: DLG3_1, Q92796
T7 sequence (Q92796 125-227, limits assumed, looked up): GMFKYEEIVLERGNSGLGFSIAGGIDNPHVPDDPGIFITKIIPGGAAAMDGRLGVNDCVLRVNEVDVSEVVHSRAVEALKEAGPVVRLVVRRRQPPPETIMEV

T8: FRMPD1, Q5SYB0
T8 sequence (Q5SYB0 52-145, limits assumed, looked up): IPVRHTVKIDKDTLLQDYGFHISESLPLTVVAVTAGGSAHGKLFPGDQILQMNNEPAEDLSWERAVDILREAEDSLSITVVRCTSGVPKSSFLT

T9: DLG3_2, Q92796
T9 sequence (Q92796 221-321, limits assumed, looked up): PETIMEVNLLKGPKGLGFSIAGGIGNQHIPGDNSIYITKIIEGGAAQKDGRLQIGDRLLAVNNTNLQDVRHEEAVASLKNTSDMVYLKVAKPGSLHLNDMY

T10: TJP3_3, O95049
T10 sequence (O95049 375-456, limits assumed, looked up): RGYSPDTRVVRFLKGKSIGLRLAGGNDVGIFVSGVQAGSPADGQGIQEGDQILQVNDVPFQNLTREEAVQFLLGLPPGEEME

T11: SNTB1, Q13884
T11 sequence (Q13884 107-205, limits assumed, looked up): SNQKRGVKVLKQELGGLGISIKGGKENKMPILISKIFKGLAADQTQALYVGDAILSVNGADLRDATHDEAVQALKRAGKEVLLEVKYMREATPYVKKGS

T12: SHANK1, Q9Y566
T12 sequence (Q9Y566 658-767, limits assumed, looked up): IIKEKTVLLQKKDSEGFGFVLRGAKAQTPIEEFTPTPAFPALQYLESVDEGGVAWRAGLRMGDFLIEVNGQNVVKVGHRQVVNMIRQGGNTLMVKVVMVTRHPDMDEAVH

T13: APBA3_1, O96018
T13 sequence (O96018 389-490, limits assumed, looked up): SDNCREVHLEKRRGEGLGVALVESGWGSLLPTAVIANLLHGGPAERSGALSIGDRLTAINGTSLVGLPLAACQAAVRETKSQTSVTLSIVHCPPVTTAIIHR


Molecular target: T1, SYNJ2BP, P57105
Assay: holdup assay
Parameters: key: below the threshold = too weak to quantify, mostly under pKd 3.1 to 4
Details: plain residues with an end cap or a label only (N-terminal biotin on a linker: ado-ado)

pKd	Binder
below the threshold	STYCDYTIEI [FAM71C, Q8NEG0]
4.98	PLPPEEESWV [GAS2L2, Q8NHY3]

Molecular target: T2, APBA2_1, Q99767
Assay: holdup assay
Parameters: key: below the threshold = too weak to quantify, mostly under pKd 3.1 to 4
Details: plain residues with an end cap or a label only (N-terminal biotin on a linker: ado-ado)

pKd	Binder
below the threshold	STYCDYTIEI [FAM71C, Q8NEG0]
below the threshold	PLPPEEESWV [GAS2L2, Q8NHY3]

Molecular target: GRID2IP_2, A4D2P6
Sequence (A4D2P6 272-370): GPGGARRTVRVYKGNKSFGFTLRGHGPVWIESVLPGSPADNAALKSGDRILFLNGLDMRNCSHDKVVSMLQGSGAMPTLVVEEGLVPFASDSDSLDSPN
Assay: holdup assay
Parameters: key: below the threshold = too weak to quantify, mostly under pKd 3.1 to 4
Details: plain residues with an end cap or a label only (N-terminal biotin on a linker: ado-ado)

pKd	Binder
below the threshold	STYCDYTIEI [FAM71C, Q8NEG0]
4.06	PLPPEEESWV [GAS2L2, Q8NHY3]

Molecular target: T3, PDZD7_3, Q9H5P4
Assay: holdup assay
Parameters: key: below the threshold = too weak to quantify, mostly under pKd 3.1 to 4
Details: plain residues with an end cap or a label only (N-terminal biotin on a linker: ado-ado)

pKd	Binder
3.55	STYCDYTIEI [FAM71C, Q8NEG0]
4.32	PLPPEEESWV [GAS2L2, Q8NHY3]

Molecular target: T4, ARHGAP21, Q5T5U3
Assay: holdup assay
Parameters: key: below the threshold = too weak to quantify, mostly under pKd 3.1 to 4
Details: plain residues with an end cap or a label only (N-terminal biotin on a linker: ado-ado)

pKd	Binder
4.13	STYCDYTIEI [FAM71C, Q8NEG0]
4.15	PLPPEEESWV [GAS2L2, Q8NHY3]

Molecular target: T5, DVL3, Q92997
Assay: holdup assay
Parameters: key: below the threshold = too weak to quantify, mostly under pKd 3.1 to 4
Details: plain residues with an end cap or a label only (N-terminal biotin on a linker: ado-ado)

pKd	Binder
4.01	STYCDYTIEI [FAM71C, Q8NEG0]
4.01	PLPPEEESWV [GAS2L2, Q8NHY3]

Molecular target: PDLIM1, O00151
Sequence (O00151 1-87): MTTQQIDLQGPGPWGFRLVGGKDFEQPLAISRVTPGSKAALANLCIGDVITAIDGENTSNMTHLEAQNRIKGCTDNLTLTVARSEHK
Assay: holdup assay
Parameters: key: below the threshold = too weak to quantify, mostly under pKd 3.1 to 4
Details: plain residues with an end cap or a label only (N-terminal biotin on a linker: ado-ado)

pKd	Binder
below the threshold	STYCDYTIEI [FAM71C, Q8NEG0]
4.22	PLPPEEESWV [GAS2L2, Q8NHY3]

Molecular target: MAGI2_6, Q86UL8
Sequence (Q86UL8 1141-1229): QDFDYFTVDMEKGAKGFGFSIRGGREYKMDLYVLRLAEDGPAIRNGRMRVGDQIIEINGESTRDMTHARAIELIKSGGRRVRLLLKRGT
Assay: holdup assay
Parameters: key: below the threshold = too weak to quantify, mostly under pKd 3.1 to 4
Details: plain residues with an end cap or a label only (N-terminal biotin on a linker: ado-ado)

pKd	Binder
below the threshold	STYCDYTIEI [FAM71C, Q8NEG0]
5.88	PLPPEEESWV [GAS2L2, Q8NHY3]

Molecular target: Inadl_4, Q8NI35
Sequence (Q8NI35 547-651): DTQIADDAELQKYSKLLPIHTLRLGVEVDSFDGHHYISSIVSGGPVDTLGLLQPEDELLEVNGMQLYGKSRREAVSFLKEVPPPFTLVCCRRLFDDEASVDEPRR
Assay: holdup assay
Parameters: key: below the threshold = too weak to quantify, mostly under pKd 3.1 to 4
Details: plain residues with an end cap or a label only (N-terminal biotin on a linker: ado-ado)

pKd	Binder
below the threshold	STYCDYTIEI [FAM71C, Q8NEG0]
below the threshold	PLPPEEESWV [GAS2L2, Q8NHY3]

Molecular target: MAGI2_5, Q86UL8
Sequence (Q86UL8 915-1017): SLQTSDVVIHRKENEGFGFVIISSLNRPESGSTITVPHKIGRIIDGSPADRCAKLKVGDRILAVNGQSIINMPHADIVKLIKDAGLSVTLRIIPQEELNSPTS
Assay: holdup assay
Parameters: key: below the threshold = too weak to quantify, mostly under pKd 3.1 to 4
Details: plain residues with an end cap or a label only (N-terminal biotin on a linker: ado-ado)

pKd	Binder
below the threshold	STYCDYTIEI [FAM71C, Q8NEG0]
4.92	PLPPEEESWV [GAS2L2, Q8NHY3]

Molecular target: T6, GRIP1_5, Q9Y3R0
Assay: holdup assay
Parameters: key: below the threshold = too weak to quantify, mostly under pKd 3.1 to 4
Details: plain residues with an end cap or a label only (N-terminal biotin on a linker: ado-ado)

pKd	Binder
below the threshold	STYCDYTIEI [FAM71C, Q8NEG0]
below the threshold	PLPPEEESWV [GAS2L2, Q8NHY3]

Molecular target: GRIP2_4, Q9C0E4
Sequence (Q9C0E4 446-548): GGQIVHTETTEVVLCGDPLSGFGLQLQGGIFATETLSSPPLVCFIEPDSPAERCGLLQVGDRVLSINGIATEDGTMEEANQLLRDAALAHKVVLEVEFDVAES
Assay: holdup assay
Parameters: key: below the threshold = too weak to quantify, mostly under pKd 3.1 to 4
Details: plain residues with an end cap or a label only (N-terminal biotin on a linker: ado-ado)

pKd	Binder
below the threshold	STYCDYTIEI [FAM71C, Q8NEG0]
below the threshold	PLPPEEESWV [GAS2L2, Q8NHY3]

Molecular target: HTRA1, Q92743
Sequence (Q92743 360-477): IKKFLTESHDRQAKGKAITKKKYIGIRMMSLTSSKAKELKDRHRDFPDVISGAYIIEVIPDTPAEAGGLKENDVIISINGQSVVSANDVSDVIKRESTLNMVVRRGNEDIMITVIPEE
Assay: holdup assay
Parameters: key: below the threshold = too weak to quantify, mostly under pKd 3.1 to 4
Details: plain residues with an end cap or a label only (N-terminal biotin on a linker: ado-ado)

pKd	Binder
5.38	STYCDYTIEI [FAM71C, Q8NEG0]
5.14	PLPPEEESWV [GAS2L2, Q8NHY3]

Molecular target: DLG1_2, Q12959
Sequence (Q12959 314-412): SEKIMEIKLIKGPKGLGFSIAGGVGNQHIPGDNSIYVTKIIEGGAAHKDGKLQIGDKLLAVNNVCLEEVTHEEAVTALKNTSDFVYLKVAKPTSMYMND
Assay: holdup assay
Parameters: key: below the threshold = too weak to quantify, mostly under pKd 3.1 to 4
Details: plain residues with an end cap or a label only (N-terminal biotin on a linker: ado-ado)

pKd	Binder
below the threshold	STYCDYTIEI [FAM71C, Q8NEG0]
4.67	PLPPEEESWV [GAS2L2, Q8NHY3]

Molecular target: T7, DLG3_1, Q92796
Assay: holdup assay
Parameters: key: below the threshold = too weak to quantify, mostly under pKd 3.1 to 4
Details: plain residues with an end cap or a label only (N-terminal biotin on a linker: ado-ado)

pKd	Binder
below the threshold	STYCDYTIEI [FAM71C, Q8NEG0]
4.01	PLPPEEESWV [GAS2L2, Q8NHY3]

Molecular target: T8, FRMPD1, Q5SYB0
Assay: holdup assay
Parameters: key: below the threshold = too weak to quantify, mostly under pKd 3.1 to 4
Details: plain residues with an end cap or a label only (N-terminal biotin on a linker: ado-ado)

pKd	Binder
below the threshold	STYCDYTIEI [FAM71C, Q8NEG0]
below the threshold	PLPPEEESWV [GAS2L2, Q8NHY3]

Molecular target: T9, DLG3_2, Q92796
Assay: holdup assay
Parameters: key: below the threshold = too weak to quantify, mostly under pKd 3.1 to 4
Details: plain residues with an end cap or a label only (N-terminal biotin on a linker: ado-ado)

pKd	Binder
below the threshold	STYCDYTIEI [FAM71C, Q8NEG0]
4.64	PLPPEEESWV [GAS2L2, Q8NHY3]

Molecular target: T10, TJP3_3, O95049
Assay: holdup assay
Parameters: key: below the threshold = too weak to quantify, mostly under pKd 3.1 to 4
Details: plain residues with an end cap or a label only (N-terminal biotin on a linker: ado-ado)

pKd	Binder
below the threshold	STYCDYTIEI [FAM71C, Q8NEG0]
4.98	PLPPEEESWV [GAS2L2, Q8NHY3]

Molecular target: T11, SNTB1, Q13884
Assay: holdup assay
Parameters: key: below the threshold = too weak to quantify, mostly under pKd 3.1 to 4
Details: plain residues with an end cap or a label only (N-terminal biotin on a linker: ado-ado)

pKd	Binder
below the threshold	STYCDYTIEI [FAM71C, Q8NEG0]
4.86	PLPPEEESWV [GAS2L2, Q8NHY3]

Molecular target: T12, SHANK1, Q9Y566
Assay: holdup assay
Parameters: key: below the threshold = too weak to quantify, mostly under pKd 3.1 to 4
Details: plain residues with an end cap or a label only (N-terminal biotin on a linker: ado-ado)

pKd	Binder
below the threshold	STYCDYTIEI [FAM71C, Q8NEG0]
4.62	PLPPEEESWV [GAS2L2, Q8NHY3]

Molecular target: SCRIB_2, Q14160
Sequence (Q14160 857-960): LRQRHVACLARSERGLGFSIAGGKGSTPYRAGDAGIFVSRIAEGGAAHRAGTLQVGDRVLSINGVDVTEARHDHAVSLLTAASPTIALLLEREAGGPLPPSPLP
Assay: holdup assay
Parameters: key: below the threshold = too weak to quantify, mostly under pKd 3.1 to 4
Details: plain residues with an end cap or a label only (N-terminal biotin on a linker: ado-ado)

pKd	Binder
below the threshold	STYCDYTIEI [FAM71C, Q8NEG0]
4.94	PLPPEEESWV [GAS2L2, Q8NHY3]

Molecular target: Inadl_6, Q8NI35
Sequence (Q8NI35 1058-1167): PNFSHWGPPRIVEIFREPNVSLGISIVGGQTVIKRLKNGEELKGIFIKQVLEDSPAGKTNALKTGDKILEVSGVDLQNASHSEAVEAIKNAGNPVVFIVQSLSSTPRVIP
Assay: holdup assay
Parameters: key: below the threshold = too weak to quantify, mostly under pKd 3.1 to 4
Details: plain residues with an end cap or a label only (N-terminal biotin on a linker: ado-ado)

pKd	Binder
below the threshold	STYCDYTIEI [FAM71C, Q8NEG0]
5.43	PLPPEEESWV [GAS2L2, Q8NHY3]

Molecular target: MAST1, Q9Y2H9
Sequence (Q9Y2H9 962-1065): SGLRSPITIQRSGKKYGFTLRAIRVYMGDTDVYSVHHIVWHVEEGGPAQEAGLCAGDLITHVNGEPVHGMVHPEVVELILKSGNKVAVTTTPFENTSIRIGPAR
Assay: holdup assay
Parameters: key: below the threshold = too weak to quantify, mostly under pKd 3.1 to 4
Details: plain residues with an end cap or a label only (N-terminal biotin on a linker: ado-ado)

pKd	Binder
4.47	STYCDYTIEI [FAM71C, Q8NEG0]
below the threshold	PLPPEEESWV [GAS2L2, Q8NHY3]

Molecular target: T13, APBA3_1, O96018
Assay: holdup assay
Parameters: key: below the threshold = too weak to quantify, mostly under pKd 3.1 to 4
Details: plain residues with an end cap or a label only (N-terminal biotin on a linker: ado-ado)

pKd	Binder
below the threshold	STYCDYTIEI [FAM71C, Q8NEG0]
below the threshold	PLPPEEESWV [GAS2L2, Q8NHY3]
